B1: dolphin ACE2, mFc-tagged (Fc fusion)
chain: QSATEERAKTFLQKFDREAEDLSYQSSLASWNYNTNITDENVQKMNAAGAKWSAFYEEQSRIAKTYPLEEIRNLTLKRQLQVLQQSGTSVLSADKSKRLNAILSTMSTIYSSGKVLDPNTQESLVLEPGLDDIMENSKDYNRRLWAWEGWRAEVGKQLRPLYEEYVVLENEMARANNYEDYGDYWRGDYEVTGAGDYDYSRDQLIRDVERTFAEIKPLYEQLHAYVRAKLMDAYPSRISPTGCLPAHLLGDMWGRFWTNLYPLTVPFGERPSIDVTKEMQNQSWDAKRIFKEAEKFFVSIGLPNMTQGFWDNSMLTEPGDGRKVVCHPTAWDLGKGDFRIKMCTKVTMDDFLTAHHEMGHIQYDMAYATQPYLFRNGANEGFHEAVGEIMSLSAATPHYLKALGLLPPDFYEDSATEINFLLKQALTIVGTLPFTYMLEKWRWMVFKGEIPKEQWMQKWWEMKREIVGVVEPLPHDETYCDPACLFHVAEDYSFIRYYTRTIYQFQFHEALCQTAKHEGPLYKCDISNSTEAGQRLLQMLHLGKSEPWTSALERIVGVKTMDVKPLLNYFEPLLTWLKGQNRNSFVGWRTDWTPYSNQSIKVRISLKSALGEKAYEWNDNEMYLFRSSVAYAMREYFSKVRNKTIPFGEKDVWVSDLKPRISFNFFVTSPKNMSDIIPRTEVEEAIRMSRGRINDAFRLDDSSLEFLGVQPTLAPPYEPPVT
B2: minke whale ACE2, mFc-tagged (Fc fusion)
chain: QSTTEEQAKTFLQKFDHEAEDLSYRSSLASWNYNTNITDENVQKMNAARAKWSAFYEEQSRIAKTYPLEEIQNLTLKRQLQALQQSGTSVLSADKSKRLNTILNTMSTIYSSGKVLDPNTQEYLVLEPGLDDIMENSEDYNRRLWAWEGWRAEVGKQLRPFYEEYVVLENEMARANNYEDYGDYWRGDYEVTGADGYDYSRNQLIADVERTFAEIKPLYEQLHAYVRAKLMDAYPSRISPTGCLPAHLLGDMWGRFWTNLYPLTVPFGEKPSIDVTKEMQNQSWDAKRIFKEAEKFFVSIGLPNMTQEFWVNSMLTEPGDGRKVVCHPTAWDLGKGDFRIKMCTKVTMDDFLTAHHEMGHIQYDMAYATQPFLLRNGANEGFHEAVGEIMSLSAATPHYLKALGLLPPDFYEDNVTEINFLLKQALQIVGTLPFTYMLEKWRWMVFKGEIPKEQWMQKWWEMKREIVGVVEPLPHDETYCDPACLFHVAEDYSFIRYYTRTIYQFQFHEALCQTAKHEGPLYKCDISNSTEAGQRLLQMLHLGKSEPWTLALENIVGVKTMDVKPLLNYFEPLLTWLKEQNRNSPVGWSTDWTPYSDQSIKVRISLKSALGEKAYEWNDNEMYLFQSSVAYAMREYFSKVRNETIPFGEKDVWVSDLKPRISFNFFVTTPKNVSDIIPRTEVEEAIRMSRGRINDAFRLDDNSLEFLGIQPTLGPPYEPPVT
B3: sperm whale ACE2, mFc-tagged (Fc fusion)
chain: QSTTEEQAKTFLQKFDHEAEDLSYQSSLASWNYNTNITDENVQKMNAARAKWSAFYEEQSRTAKTYPLEEIQNLTLKRQLQALQQSGTSVLSADKSKRLNTILNTMSTIYSSGKVLDPNTQECLVLEPGLDDIMENSEDYSRRLWAWEAWRAEVGKQLRPLYEEYVVLENEMARANNYEDYGDYWRGDYEVTGAGDYDYSRDQLITDVERTFAEIKPLYEQLHAYVRAKLMDAYPSRISPTGCLPAHLLGDMWGRFWTNLYPLTVPFGEKSSIDVTKEMRNQSWDAKRIFKEAEKFFVSIGLPNMTQEFWDNSMLTEPGDGRKVVCHPTAWDLGKGDFRIKMCTKVTMDDFLTARHEMGHIQYDMAYATQPYLLRNGANEGFHEAVGEIMSLSAATPHYLKALGLLPPDFYEDSATEINFLLKQALKIVGTLPFTYMLEKWRWMVFKGEIPKEQWMQKWWEMKREIVGVVEPLPHDETYCDPACLFHVAEDYSFIRYYTRTIYQFQFHEALCQAAKHEGPLYKCDISNSTEAGQRLLQMLHLGKSEPWTSALENIVGVKTMDVKPLLNYFEPLLTWLKDQNRNSFVGWSTDWTPYSDQSIKVRISLKSALGEKAYEWNDNEMYLFRSSVAYAMREYFSKVRNETIPFGEEDVRVGDLKPRISFTFFVTSPKNVSDIIPRTEVEEAIRMSRGRINDAFRLDDNSLEFLGIEPTLGPPYEPPVT
B4: fur seal ACE2, mFc-tagged (Fc fusion)
chain: RSTTEDLVKTFLEKFNSEAEELSYQSSFASWNYNTNITDENVQKMNDAGAKWSAFYEEQSKQAKTYPLEEIQDSTVKRQLQALQHSGSSVLSVDKSQRLNTILNAMSTIYSTGKACNPNNPQECLLLEPGLDDIMANSRDYNERLWAWEGWRSEVGKQLRPLYEEYVALKNEMARANNYEDYGDYWRGDYEEEWTNGYNYSRDQLIKDVEQTFTQIQPLYEHLHAYVRAKLMDTYPSHISPTGCLPAHLLGDMWGRFWTNLYPLTVPFGQKPNIDVTDTMVNQSWDARRIFEEAEKFFVSVGLPNMTQGFWENSMLTEPGDSRKVVCHPTAWDLGKHDFRIKMCTKVTMDDFLTAHHEMGHIQYDMAYAAQPFLLRNGANEGFHEAVGEIMSLSAATPKHLKNIGLLPPGFSEDNETDINFLFKQALTIVGTLPFTYMLEKWRWMVFKGEIPKEQWMKKWWEMKRDLVGVVEPLPHDETYCDPASLFHVANDYSFIRYYTRTIYQFQFQEALCQIAKHEGPLHKCDISNSSEAGQTLLQMLKLGRSKPWTLALYRVVGAKNMDVRPLLNYFDPLFTWLKEQNRNSFVGWNTDWSPYADQSIKVRISLKSALGEKAYEWNDNEMYLFRSSIAYAMREYFSKVKKQTIPFVEDNVWVNNLKPRISFTFFVTSPGNMSDIIPRADVEEAIRMSRGRINDAFRLDDNSLEFLGIQPTLEPPYQPPVT
B5: sea lion ACE2, mFc-tagged (Fc fusion)
chain: RSTTEDLVKTFLEKFNSEAEELSYQSSLASWNYNTNITDENVQKMNDAGAKWSAFYEEQSKQAKTYPLEEIQDSTVKRQLQALQHSGSSVLSADKSQRLNTILNAMSTIYSTGKACNPNNPQECLLLEPGLDDIMANSRDYNERLWAWEGWRSEVGKQLRPLYEEYVALKNEMARANNYEDYGDYWRGDYEEEWTNGYNYSRDQLIKDVEQTFTQIQPLYEHLHAYVRAKLMDTYPSHMSPTGCLPAHLLGDMWGRFWTNLYPLTVPFGQKPNIDVTDTMVNQSWDARRIFEEAEKFFVSVGLPNMTQGFWENSMLTEPGDSRKVVCHPTAWDLGKHDFRIKMCTKVTMDDFLTAHHEMGHIQYDMAYAAQPFLLRNGANEGFHEAVGEIMSLSAATPKHLKNIGLLPPGFSEDNETDINFLFKQALTIVGTLPFTYMLEKWRWMVFKGEIPKEQWMKKWWEMKRDLVGVVEPLPHDETYCDPASLFHVANDYSFIRYYTRTIYQFQFQEALCQIAKHEGPLHKCDISNSSEAGQTLLQMLKLGRSKPWTLALYRVVGAKNMDVRPLLNYFDPLFTWLKEQNRNSFVGWNTDWSPYADQSIKVRISLKSALGEKAYEWNDNEMYLFRSSIAYAMREYFSKVKNQMIPFVEDNVWVNNLKPRISFTFFVTSPGNMSDIIPRADVEEAIRMSRGRINDAFRLDDNSLEFLGIQPTLEPPYQPPVT

molecular target: SARS-CoV-2 receptor-binding domain (RBD), prototype (SARS-CoV-2, UniProt P0DTC2); assay: SPR

In order of falling Kd:
1. B1  562 nM
2. B3  234 nM
3. B2  175 nM
4. B5  171 nM
5. B4  129 nM

Reference: paper PMC9517163 (2022)
